B1: H183/L072 VH S30N (antibody, name in Kabat numbering, V domains shown)
VH: QVQLVESGGGLVQPGRSLRLSCAASGFTFNNAWMHWVRQAPGKGLEWVAQIKDKGNAYAAYYAPSVKGRFTISRDDSKNSIYLQMNSLKTEDTAVYYCHYVHYASASTVLPAFGVDAWGQGTTVTVSS
VL: DIVMTQSPLSLPVTPGEPASISCQASQELVHMNRNTYLHWYQQKPGQAPRLLIYKVSNRFPGVPDRFSGSGSGTDFTLKISRVEAEDVGVYYCAQGTSVPFTFGQGTKLEIK
B2: H183/L072 VH S100aA (antibody, name in Kabat numbering, V domains shown)
VH: QVQLVESGGGLVQPGRSLRLSCAASGFTFSNAWMHWVRQAPGKGLEWVAQIKDKGNAYAAYYAPSVKGRFTISRDDSKNSIYLQMNSLKTEDTAVYYCHYVHYASAATVLPAFGVDAWGQGTTVTVSS
VL: DIVMTQSPLSLPVTPGEPASISCQASQELVHMNRNTYLHWYQQKPGQAPRLLIYKVSNRFPGVPDRFSGSGSGTDFTLKISRVEAEDVGVYYCAQGTSVPFTFGQGTKLEIK
B3: H183/L072 VH S100aL (antibody, name in Kabat numbering, V domains shown)
VH: QVQLVESGGGLVQPGRSLRLSCAASGFTFSNAWMHWVRQAPGKGLEWVAQIKDKGNAYAAYYAPSVKGRFTISRDDSKNSIYLQMNSLKTEDTAVYYCHYVHYASALTVLPAFGVDAWGQGTTVTVSS
VL: DIVMTQSPLSLPVTPGEPASISCQASQELVHMNRNTYLHWYQQKPGQAPRLLIYKVSNRFPGVPDRFSGSGSGTDFTLKISRVEAEDVGVYYCAQGTSVPFTFGQGTKLEIK
B4: H183/L072 VH S62I (antibody, name in Kabat numbering, V domains shown)
VH: QVQLVESGGGLVQPGRSLRLSCAASGFTFSNAWMHWVRQAPGKGLEWVAQIKDKGNAYAAYYAPIVKGRFTISRDDSKNSIYLQMNSLKTEDTAVYYCHYVHYASASTVLPAFGVDAWGQGTTVTVSS
VL: DIVMTQSPLSLPVTPGEPASISCQASQELVHMNRNTYLHWYQQKPGQAPRLLIYKVSNRFPGVPDRFSGSGSGTDFTLKISRVEAEDVGVYYCAQGTSVPFTFGQGTKLEIK
B5: H183/L072 VH S99A (antibody, name in Kabat numbering, V domains shown)
VH: QVQLVESGGGLVQPGRSLRLSCAASGFTFSNAWMHWVRQAPGKGLEWVAQIKDKGNAYAAYYAPSVKGRFTISRDDSKNSIYLQMNSLKTEDTAVYYCHYVHYAAASTVLPAFGVDAWGQGTTVTVSS
VL: DIVMTQSPLSLPVTPGEPASISCQASQELVHMNRNTYLHWYQQKPGQAPRLLIYKVSNRFPGVPDRFSGSGSGTDFTLKISRVEAEDVGVYYCAQGTSVPFTFGQGTKLEIK
B6: H183/L072 VH S30P (antibody, name in Kabat numbering, V domains shown)
VH: QVQLVESGGGLVQPGRSLRLSCAASGFTFPNAWMHWVRQAPGKGLEWVAQIKDKGNAYAAYYAPSVKGRFTISRDDSKNSIYLQMNSLKTEDTAVYYCHYVHYASASTVLPAFGVDAWGQGTTVTVSS
VL: DIVMTQSPLSLPVTPGEPASISCQASQELVHMNRNTYLHWYQQKPGQAPRLLIYKVSNRFPGVPDRFSGSGSGTDFTLKISRVEAEDVGVYYCAQGTSVPFTFGQGTKLEIK
B7: H183/L072 VH S62A (antibody, name in Kabat numbering, V domains shown)
VH: QVQLVESGGGLVQPGRSLRLSCAASGFTFSNAWMHWVRQAPGKGLEWVAQIKDKGNAYAAYYAPAVKGRFTISRDDSKNSIYLQMNSLKTEDTAVYYCHYVHYASASTVLPAFGVDAWGQGTTVTVSS
VL: DIVMTQSPLSLPVTPGEPASISCQASQELVHMNRNTYLHWYQQKPGQAPRLLIYKVSNRFPGVPDRFSGSGSGTDFTLKISRVEAEDVGVYYCAQGTSVPFTFGQGTKLEIK
B8: H183/L072 VH S30W (antibody, name in Kabat numbering, V domains shown)
VH: QVQLVESGGGLVQPGRSLRLSCAASGFTFWNAWMHWVRQAPGKGLEWVAQIKDKGNAYAAYYAPSVKGRFTISRDDSKNSIYLQMNSLKTEDTAVYYCHYVHYASASTVLPAFGVDAWGQGTTVTVSS
VL: DIVMTQSPLSLPVTPGEPASISCQASQELVHMNRNTYLHWYQQKPGQAPRLLIYKVSNRFPGVPDRFSGSGSGTDFTLKISRVEAEDVGVYYCAQGTSVPFTFGQGTKLEIK
B9: H183/L072 VH S100aM (antibody, name in Kabat numbering, V domains shown)
VH: QVQLVESGGGLVQPGRSLRLSCAASGFTFSNAWMHWVRQAPGKGLEWVAQIKDKGNAYAAYYAPSVKGRFTISRDDSKNSIYLQMNSLKTEDTAVYYCHYVHYASAMTVLPAFGVDAWGQGTTVTVSS
VL: DIVMTQSPLSLPVTPGEPASISCQASQELVHMNRNTYLHWYQQKPGQAPRLLIYKVSNRFPGVPDRFSGSGSGTDFTLKISRVEAEDVGVYYCAQGTSVPFTFGQGTKLEIK
B10: H183/L072 VH S99M (antibody, name in Kabat numbering, V domains shown)
VH: QVQLVESGGGLVQPGRSLRLSCAASGFTFSNAWMHWVRQAPGKGLEWVAQIKDKGNAYAAYYAPSVKGRFTISRDDSKNSIYLQMNSLKTEDTAVYYCHYVHYAMASTVLPAFGVDAWGQGTTVTVSS
VL: DIVMTQSPLSLPVTPGEPASISCQASQELVHMNRNTYLHWYQQKPGQAPRLLIYKVSNRFPGVPDRFSGSGSGTDFTLKISRVEAEDVGVYYCAQGTSVPFTFGQGTKLEIK
B11: H183/L072 VH S30R (antibody, name in Kabat numbering, V domains shown)
VH: QVQLVESGGGLVQPGRSLRLSCAASGFTFRNAWMHWVRQAPGKGLEWVAQIKDKGNAYAAYYAPSVKGRFTISRDDSKNSIYLQMNSLKTEDTAVYYCHYVHYASASTVLPAFGVDAWGQGTTVTVSS
VL: DIVMTQSPLSLPVTPGEPASISCQASQELVHMNRNTYLHWYQQKPGQAPRLLIYKVSNRFPGVPDRFSGSGSGTDFTLKISRVEAEDVGVYYCAQGTSVPFTFGQGTKLEIK
B12: H183/L072 VH S62L (antibody, name in Kabat numbering, V domains shown)
VH: QVQLVESGGGLVQPGRSLRLSCAASGFTFSNAWMHWVRQAPGKGLEWVAQIKDKGNAYAAYYAPLVKGRFTISRDDSKNSIYLQMNSLKTEDTAVYYCHYVHYASASTVLPAFGVDAWGQGTTVTVSS
VL: DIVMTQSPLSLPVTPGEPASISCQASQELVHMNRNTYLHWYQQKPGQAPRLLIYKVSNRFPGVPDRFSGSGSGTDFTLKISRVEAEDVGVYYCAQGTSVPFTFGQGTKLEIK
B13: H183/L072 VH S30V (antibody, name in Kabat numbering, V domains shown)
VH: QVQLVESGGGLVQPGRSLRLSCAASGFTFVNAWMHWVRQAPGKGLEWVAQIKDKGNAYAAYYAPSVKGRFTISRDDSKNSIYLQMNSLKTEDTAVYYCHYVHYASASTVLPAFGVDAWGQGTTVTVSS
VL: DIVMTQSPLSLPVTPGEPASISCQASQELVHMNRNTYLHWYQQKPGQAPRLLIYKVSNRFPGVPDRFSGSGSGTDFTLKISRVEAEDVGVYYCAQGTSVPFTFGQGTKLEIK
B14: H183/L072 VH S30Y (antibody, name in Kabat numbering, V domains shown)
VH: QVQLVESGGGLVQPGRSLRLSCAASGFTFYNAWMHWVRQAPGKGLEWVAQIKDKGNAYAAYYAPSVKGRFTISRDDSKNSIYLQMNSLKTEDTAVYYCHYVHYASASTVLPAFGVDAWGQGTTVTVSS
VL: DIVMTQSPLSLPVTPGEPASISCQASQELVHMNRNTYLHWYQQKPGQAPRLLIYKVSNRFPGVPDRFSGSGSGTDFTLKISRVEAEDVGVYYCAQGTSVPFTFGQGTKLEIK
B15: H183/L072 VH S99L (antibody, name in Kabat numbering, V domains shown)
VH: QVQLVESGGGLVQPGRSLRLSCAASGFTFSNAWMHWVRQAPGKGLEWVAQIKDKGNAYAAYYAPSVKGRFTISRDDSKNSIYLQMNSLKTEDTAVYYCHYVHYALASTVLPAFGVDAWGQGTTVTVSS
VL: DIVMTQSPLSLPVTPGEPASISCQASQELVHMNRNTYLHWYQQKPGQAPRLLIYKVSNRFPGVPDRFSGSGSGTDFTLKISRVEAEDVGVYYCAQGTSVPFTFGQGTKLEIK
B16: H183/L072 VH S30Q (antibody, name in Kabat numbering, V domains shown)
VH: QVQLVESGGGLVQPGRSLRLSCAASGFTFQNAWMHWVRQAPGKGLEWVAQIKDKGNAYAAYYAPSVKGRFTISRDDSKNSIYLQMNSLKTEDTAVYYCHYVHYASASTVLPAFGVDAWGQGTTVTVSS
VL: DIVMTQSPLSLPVTPGEPASISCQASQELVHMNRNTYLHWYQQKPGQAPRLLIYKVSNRFPGVPDRFSGSGSGTDFTLKISRVEAEDVGVYYCAQGTSVPFTFGQGTKLEIK
B17: H183/L072 VH S62M (antibody, name in Kabat numbering, V domains shown)
VH: QVQLVESGGGLVQPGRSLRLSCAASGFTFSNAWMHWVRQAPGKGLEWVAQIKDKGNAYAAYYAPMVKGRFTISRDDSKNSIYLQMNSLKTEDTAVYYCHYVHYASASTVLPAFGVDAWGQGTTVTVSS
VL: DIVMTQSPLSLPVTPGEPASISCQASQELVHMNRNTYLHWYQQKPGQAPRLLIYKVSNRFPGVPDRFSGSGSGTDFTLKISRVEAEDVGVYYCAQGTSVPFTFGQGTKLEIK
B18: H183/L072 VH S30T (antibody, name in Kabat numbering, V domains shown)
VH: QVQLVESGGGLVQPGRSLRLSCAASGFTFTNAWMHWVRQAPGKGLEWVAQIKDKGNAYAAYYAPSVKGRFTISRDDSKNSIYLQMNSLKTEDTAVYYCHYVHYASASTVLPAFGVDAWGQGTTVTVSS
VL: DIVMTQSPLSLPVTPGEPASISCQASQELVHMNRNTYLHWYQQKPGQAPRLLIYKVSNRFPGVPDRFSGSGSGTDFTLKISRVEAEDVGVYYCAQGTSVPFTFGQGTKLEIK
B19: H183/L072 VH S100aI (antibody, name in Kabat numbering, V domains shown)
VH: QVQLVESGGGLVQPGRSLRLSCAASGFTFSNAWMHWVRQAPGKGLEWVAQIKDKGNAYAAYYAPSVKGRFTISRDDSKNSIYLQMNSLKTEDTAVYYCHYVHYASAITVLPAFGVDAWGQGTTVTVSS
VL: DIVMTQSPLSLPVTPGEPASISCQASQELVHMNRNTYLHWYQQKPGQAPRLLIYKVSNRFPGVPDRFSGSGSGTDFTLKISRVEAEDVGVYYCAQGTSVPFTFGQGTKLEIK
B20: H183/L072 VH S62P (antibody, name in Kabat numbering, V domains shown)
VH: QVQLVESGGGLVQPGRSLRLSCAASGFTFSNAWMHWVRQAPGKGLEWVAQIKDKGNAYAAYYAPPVKGRFTISRDDSKNSIYLQMNSLKTEDTAVYYCHYVHYASASTVLPAFGVDAWGQGTTVTVSS
VL: DIVMTQSPLSLPVTPGEPASISCQASQELVHMNRNTYLHWYQQKPGQAPRLLIYKVSNRFPGVPDRFSGSGSGTDFTLKISRVEAEDVGVYYCAQGTSVPFTFGQGTKLEIK
B21: H183/L072 VH S99I (antibody, name in Kabat numbering, V domains shown)
VH: QVQLVESGGGLVQPGRSLRLSCAASGFTFSNAWMHWVRQAPGKGLEWVAQIKDKGNAYAAYYAPSVKGRFTISRDDSKNSIYLQMNSLKTEDTAVYYCHYVHYAIASTVLPAFGVDAWGQGTTVTVSS
VL: DIVMTQSPLSLPVTPGEPASISCQASQELVHMNRNTYLHWYQQKPGQAPRLLIYKVSNRFPGVPDRFSGSGSGTDFTLKISRVEAEDVGVYYCAQGTSVPFTFGQGTKLEIK

biological target: T1, Human CD137 ECD (human); experiment: single mutant vs template dBBDu183H
T1 construct: also called 4-1BB
T1 sequence (chain, as listed by the source limits assumed): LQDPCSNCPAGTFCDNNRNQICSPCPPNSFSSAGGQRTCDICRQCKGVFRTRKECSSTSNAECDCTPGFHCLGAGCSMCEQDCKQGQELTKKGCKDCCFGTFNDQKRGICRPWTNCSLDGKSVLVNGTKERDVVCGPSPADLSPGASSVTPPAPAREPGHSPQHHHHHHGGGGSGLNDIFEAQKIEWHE

Question: Which “fold change of affinity” value does the source give for B1 here?
Answer: 0.6 fold

Question: Which “fold change of affinity” value does the source give for B2 here?
Answer: 0 fold

Question: B3 was tested. Which “fold change of affinity” value did it give?
Answer: 0 fold

Question: How did the “fold change of affinity” value turn out when B4 was run?
Answer: 0.7 fold

Question: Which “fold change of affinity” value does the source give for B5 here?
Answer: 1.4 fold

Question: With B6 as the binder, how does the “fold change of affinity” value read?
Answer: 0.9 fold

Question: B7 was tested. Which “fold change of affinity” value did it give?
Answer: 0.7 fold

Question: For B8, which “fold change of affinity” value is on record?
Answer: 0.5 fold

Question: With B9 as the binder, how does the “fold change of affinity” value read?
Answer: 0 fold

Question: Which “fold change of affinity” value does the source give for B10 here?
Answer: 0.8 fold

Question: With B11 as the binder, how does the “fold change of affinity” value read?
Answer: 0.7 fold

Question: With B12 as the binder, how does the “fold change of affinity” value read?
Answer: 0.9 fold

Question: With B13 as the binder, how does the “fold change of affinity” value read?
Answer: 0.8 fold

Question: Which “fold change of affinity” value does the source give for B14 here?
Answer: 0.5 fold

Question: With B15 as the binder, how does the “fold change of affinity” value read?
Answer: 0.3 fold

Question: How did the “fold change of affinity” value turn out when B16 was run?
Answer: 0.7 fold

Question: With B17 as the binder, how does the “fold change of affinity” value read?
Answer: 0.8 fold

Question: For B18, which “fold change of affinity” value is on record?
Answer: 0.9 fold

Question: With B19 as the binder, how does the “fold change of affinity” value read?
Answer: 0 fold

Question: How did the “fold change of affinity” value turn out when B20 was run?
Answer: 0.7 fold

Question: How did the “fold change of affinity” value turn out when B21 was run?
Answer: 0 fold

— US20210388087A1 (Chugai, published 2021)
